In patent CN111100204A one finds EC50 and Kd data, which are given here for one molecule.

In test [1] the target is T1, 人CD20蛋白 (human CD20) (human) (UniProt P11836).
T1 sequence (looked up): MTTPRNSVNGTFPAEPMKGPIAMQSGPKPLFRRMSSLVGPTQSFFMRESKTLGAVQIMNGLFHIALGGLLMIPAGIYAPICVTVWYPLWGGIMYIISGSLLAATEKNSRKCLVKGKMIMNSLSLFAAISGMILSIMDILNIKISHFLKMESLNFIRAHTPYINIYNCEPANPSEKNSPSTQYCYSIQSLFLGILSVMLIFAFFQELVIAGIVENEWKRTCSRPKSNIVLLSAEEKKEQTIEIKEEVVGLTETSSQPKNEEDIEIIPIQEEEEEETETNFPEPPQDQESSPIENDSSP
Briefly: indirect ELISA, recombinant human CD20 coated, rabbit anti-human IgG Fc-HRP. Background: ELISA stands for enzyme-linked immunosorbent assay.

Test [2] concerns the target T1, 人CD20蛋白 (human CD20) (human). The test can be described thus: SPR (Biacore), antibody captured on anti-human capture CM5 chip, antigen as analyte from 10 nM, 1:1 kinetic model.

B1: 人源化抗体HB12 (humanized anti-CD20 antibody HB12) (antibody, part only; not given: IgG1 and kappa constant regions, human IgG1, V domains shown, part only)
VH: QVQLVQSGSELKKPGASVKVSCKASSYMHAVGMNWVKQAPGQGFEWMGWIYADSGTGGVTYVKGIIPTYAQGFTGRFVFSLDTSVSTAYLQISSLKAEDTATYYCDYYDGLYGMDVYGAGSFWGQGTTVTVSS
As for B1, in test [1], the EC50 amounted to 0.0256 µg/mL. Moreover, the dissociation constant Kd in test [2] is 21.8 pM.

One may read the EC50 as the concentration needed to bring the measured effect to its halfway point. By Kd is commonly meant the concentration at which binding is half-saturated. A higher Kd goes with a looser complex.
